Reference: US10072252B2 (priority 2013, dated 2018)
Substitutions are numbered along the chain they refer to. Names may count otherwise. “And” between values parts separate entries of the source, which are not always exact repeats. Identical values can stand only once.

Key:
[1] = molecular target: T1, Sulfolobus solfataricus SsoPox variant W263M, SEQ ID NO: 9 (Saccharolobus solfataricus, UniProt Q97VT7, W263M); format: biochemical
T1 construct: made in house; host or cells: E. coli BL21(DE3)-pGro7/GroEL

[2] = molecular target: T2, Sulfolobus solfataricus SsoPox variant W263L, SEQ ID NO: 11 (Saccharolobus solfataricus, UniProt Q97VT7, W263L); format: biochemical
T2 construct: made in house; host or cells: E. coli BL21(DE3)-pGro7/GroEL

[3] = molecular target: T3, Sulfolobus solfataricus SsoPox, wild type (wt), SEQ ID NO: 3 (Saccharolobus solfataricus, UniProt Q97VT7)
[4] = molecular target: Sulfolobus solfataricus SsoPox variant W263F (of SEQ ID NO: 3) (Saccharolobus solfataricus, UniProt Q97VT7, W263F)
[5] = molecular target: T4, Sulfolobus solfataricus SsoPox variant αsA1 (C258L/I261F/W263A), SEQ ID NO: 21 (Saccharolobus solfataricus, UniProt Q97VT7, C258L/I261F/W263A); format: biochemical; conditions: for Catalytic activity: pH 8
T4 construct: made in house; host or cells: E. coli BL21(DE3)-pGro7/GroEL
T4 sequence (Q97VT7 1-314 C258L/I261F/W263A): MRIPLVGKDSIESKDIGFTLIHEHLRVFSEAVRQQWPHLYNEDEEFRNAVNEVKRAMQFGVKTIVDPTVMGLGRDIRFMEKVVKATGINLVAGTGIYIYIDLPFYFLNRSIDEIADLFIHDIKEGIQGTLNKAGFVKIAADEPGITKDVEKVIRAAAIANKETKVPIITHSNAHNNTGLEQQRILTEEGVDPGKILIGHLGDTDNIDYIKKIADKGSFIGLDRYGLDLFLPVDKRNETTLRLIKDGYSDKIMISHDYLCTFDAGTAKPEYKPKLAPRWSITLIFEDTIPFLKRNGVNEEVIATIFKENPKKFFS

[6] = molecular target: T3, Sulfolobus solfataricus SsoPox, wild type (wt), SEQ ID NO: 3; design: made in house; host or cells: E. coli BL21(DE3)-pGro7/GroEL; conditions: pH 8; cited from earlier work
[7] = molecular target: T2, Sulfolobus solfataricus SsoPox variant W263L, SEQ ID NO: 11; format: biochemical; remark: listed apart in the source
[8] = molecular target: Sulfolobus solfataricus SsoPox variant W263I, SEQ ID NO: 15 (Saccharolobus solfataricus, UniProt Q97VT7, W263I)
[9] = molecular target: Sulfolobus solfataricus SsoPox variant W263V, SEQ ID NO: 17 (Saccharolobus solfataricus, UniProt Q97VT7, W263V)
[10] = molecular target: Sulfolobus solfataricus SsoPox variant W263T, SEQ ID NO: 19 (Saccharolobus solfataricus, UniProt Q97VT7, W263T)
[11] = test system: CCCCCCCCCC(=O)CC(=O)N[C@H]1CCOC1=O; experiment: purified protein, by the assay type; conditions: pH 8.3; 25.0 °C
CCCCCCC1CCCC(=O)O1 = experiment: purified protein, by the assay type; conditions: pH 8.3; 25.0 °C
[12] = test system: CCCCCCCC(=O)CC(=O)N[C@H]1CCOC1=O; experiment: purified protein, by the assay type; conditions: pH 8.3; 25.0 °C
3-oxo-C12 AHL = format: cell-based, Pseudomonas aeruginosa
[13] = format: physicochemical; conditions: pH 8

CCCCCCCC(=O)CC(=O)N[C@H]1CCOC1=O [3-oxo-C10 AHL]
Enhancement/wt [1]: 0 | Enhancement/wt [2]: 0 | Enhancement/wt [3]: 1 | kcat/KM [3]: 3.16(±0.40)×10^4 M^−1s^−1 | times better substrate / higher catalytic efficiency [3]: 10 times | Enhancement/wt [4]: 4.4(±1.0) × 10^−1

CCOP(=S)(OCC)Oc1ccc([N+](=O)[O-])cc1 [Ethyl-Parathion, ethyl-parathion]
Catalytic activity (very low hydrolysis) [5]: VLH

CCOC(=O)CC(SP(=S)(OC)OC)C(=O)OCC (centres unmarked) [Malathion, malathion]
Catalytic activity [5]: 3.2 ± 0.7 M⁻¹ s⁻¹ | Catalytic activity [6]: 5.56 ± 1.26 M⁻¹ s⁻¹

COP(=O)(OC)Oc1ccc([N+](=O)[O-])cc1 [Methyl-paraoxon, methyl-paraoxon]
catalytic efficiency improvement induced by SDS [7]: 5.3 times | kcat/KM [7]: 3.16(±0.10) × 10^4 M^−1s^−1 and 1.69(±0.04) × 10^5 M^−1s^−1 | Catalytic activity [5]: 2.29(±1.09) · 10^4 M^−1s^−1 | Catalytic activity [6]: 1.27(±0.7) · 10^3 M^−1s^−1

COP(=S)(OC)Oc1ccc([N+](=O)[O-])cc1 [Methyl-parathion, methyl-parathion]
Km [7]: 168 ± 31 µM | kcat [7]: 1.22(±0.13) × 10^−1 s^−1 | kcat/KM [7]: 728 ± 156 M⁻¹ s⁻¹ | Catalytic activity [5]: 3.68(±0.5) · 10^1 M^−1s^−1 | Catalytic activity [6]: 9.09 ± 0.9 M⁻¹ s⁻¹

CCCCCCCC1CCC(=O)O1 (centres unmarked) [Undecanoic-γ-lactone, undecanoic-γ-lactone]
Enhancement/wt [1]: 5.4 ± 1.3 | Enhancement/wt [2]: 4.4 ± 1.1 | Enhancement/wt [3]: 1 | kcat/KM [3]: 2.36 (±0.38)×10^3 M^−1s^−1 | Enhancement/wt [4]: 5.3 ± 1.8 | Enhancement/wt [8]: 2.3 ± 0.5 | Enhancement/wt [9]: 1.4 ± 0.4 | Enhancement/wt [10]: 147.9 ± 53.5

CCCCCCC1CCCC(=O)O1 (centres unmarked) [Undecanoic-δ-lactone, undecanoic-δ-lactone]
Enhancement/wt [1]: 5.6 ± 2.0 | Enhancement/wt [2]: 3.3 ± 1.2 | Enhancement/wt [3]: 1 | kcat/KM [3]: 6.72(±2.54)×10^4 M^−1s^−1 | times better substrate / higher catalytic efficiency [3]: 10 times | Enhancement/wt [4]: 6.3 ± 2.7 | Enhancement/wt [8]: >73.8 ± 17.2 | kcat ([8]; pH 8.3): (5.80 ± 0.74) × 10^1 s^−1 | kcat/KM ([8]; pH 8.3): >5.80(±0.74) × 10^6 M^−1s^−1 | Enhancement/wt [9]: 10.1 ± 3.6 | Enhancement/wt [10]: 9.1 ± 3.5

Sulfolobus solfataricus SsoPox variant W263A, SEQ ID NO: 13 (Saccharolobus solfataricus P2; W263A)
Km [11]: 1640 ± 170 µM

Sulfolobus solfataricus SsoPox variant W263F (of SEQ ID NO: 3) (Saccharolobus solfataricus P2; W263F)
Km (CCCCCCC1CCCC(=O)O1): 135.2 ± 52.8 µM | kcat (CCCCCCC1CCCC(=O)O1): 66.5 ± 3.2 s⁻¹ | kcat/Km (CCCCCCC1CCCC(=O)O1): 492000 ± 193000 M⁻¹ s⁻¹ | Km [12]: 288 ± 56 µM | kcat [12]: 3.96 ± 0.18 s⁻¹ | kcat/Km [12]: 13800 ± 2800 M⁻¹ s⁻¹ | Km [11]: 146 ± 33 µM | kcat [11]: 0.66 ± 0.03 s⁻¹ | kcat/Km [11]: 4520 ± 1040 M⁻¹ s⁻¹

Sulfolobus solfataricus SsoPox variant W263I, SEQ ID NO: 15 (Saccharolobus solfataricus P2; W263I)
Km [12]: 1605 ± 443 µM | kcat [12]: 0.6 ± 0.09 s⁻¹ | kcat/Km [12]: 374 ± 117 M⁻¹ s⁻¹ | Km [11]: 17.8 ± 4.87 µM and 17.8 ± 4.9 µM | kcat [11]: 2.89 s⁻¹ and 2.89 ± 0.08 s⁻¹

Sulfolobus solfataricus SsoPox variant W263T, SEQ ID NO: 19 (Saccharolobus solfataricus P2; W263T)
Km [12]: 1000 ± 343 µM | kcat [12]: 0.107 ± 0.016 s⁻¹ | kcat/Km [12]: 106 ± 40 M⁻¹ s⁻¹ | Km [11]: 137 ± 19 µM | kcat [11]: 10.4 ± 0.35 s⁻¹ | kcat/Km [11]: 75600 ± 10800 M⁻¹ s⁻¹

Sulfolobus solfataricus SsoPox variant W263V, SEQ ID NO: 17 (Saccharolobus solfataricus P2; W263V)
Km [12]: 1346 ± 298 µM | kcat [12]: 0.19 ± 0.009 s⁻¹ | kcat/Km [12]: 141 ± 32 M⁻¹ s⁻¹ | Km [11]: 24.7 ± 5.2 µM | kcat [11]: 4.82 ± 0.11 s⁻¹ | kcat/Km [11]: 195000 ± 44000 M⁻¹ s⁻¹

Sulfolobus solfataricus SsoPox, wild type (wt), SEQ ID NO: 3 (Saccharolobus solfataricus P2)
Km (CCCCCCC1CCCC(=O)O1): 94 ± 18 µM | kcat (CCCCCCC1CCCC(=O)O1): 7.38 ± 0.28 s⁻¹ | kcat/Km (CCCCCCC1CCCC(=O)O1): 78600 ± 15300 M⁻¹ s⁻¹ | Km [12]: 143 ± 15 µM | kcat [12]: 4.52 ± 0.1 s⁻¹ | kcat/Km [12]: 31600 ± 4000 M⁻¹ s⁻¹ | Km [11]: 335 ± 10.4 µM and 456 ± 128 µM

B1: SsoPox W263A: SEQ ID NO: 3 with substitution of tryptophan W in position 263 by alanine A (protein, listed as Sulfolobus solfataricus)
chain: T4 sequence (Q97VT7 1-314 C258L/I261F/W263A) with L258C, F261I
relative lactonase activity in screening (3-oxo-C12 AHL hydrolysis) (3-oxo-C12 AHL): selected for a potential lactonase activity improvement

B2: SsoPox W263L: SEQ ID NO: 3 with substitution of tryptophan W in position 263 by leucine L (protein, listed as Sulfolobus solfataricus)
chain: T4 sequence (Q97VT7 1-314 C258L/I261F/W263A) with L258C, F261I, A263L
melting temperature [13]: 92.0±2.1 °C

B3: SsoPox W263V: SEQ ID NO: 3 with substitution of tryptophan W in position 263 by valine V (protein, listed as Sulfolobus solfataricus)
chain: T4 sequence (Q97VT7 1-314 C258L/I261F/W263A) with L258C, F261I, A263V
relative lactonase activity in screening (3-oxo-C12 AHL hydrolysis) (3-oxo-C12 AHL): selected for a potential lactonase activity improvement | melting temperature [13]: 84.1±1.6 °C

B4: SsoPox W263F: SsoPox (SEQ ID NO: 3) with W263F variation (protein, listed as Sulfolobus solfataricus)
chain: T4 sequence (Q97VT7 1-314 C258L/I261F/W263A) with L258C, F261I, A263F
melting temperature [13]: 91.8±1.7 °C

B5: SsoPox W263T: SEQ ID NO: 3 with substitution of tryptophan W in position 263 by threonine T (protein, listed as Sulfolobus solfataricus)
chain: T4 sequence (Q97VT7 1-314 C258L/I261F/W263A) with L258C, F261I, A263T
relative lactonase activity in screening (3-oxo-C12 AHL hydrolysis) (3-oxo-C12 AHL): selected for a potential lactonase activity improvement | melting temperature [13]: 89.2±0.4 °C

B6: SsoPox W263M: SEQ ID NO: 3 with substitution of tryptophan W in position 263 by methionine M (protein, listed as Sulfolobus solfataricus)
chain: T4 sequence (Q97VT7 1-314 C258L/I261F/W263A) with L258C, F261I, A263M
melting temperature [13]: 85.3±0.9 °C

B7: SsoPox wt: wild-type hyperthermophilic PTE of Sulfolobus solfataricus, sequence SEQ ID NO: 3 (protein, listed as Sulfolobus solfataricus)
chain: T4 sequence (Q97VT7 1-314 C258L/I261F/W263A) with L258C, F261I, A263W
melting temperature [13]: 104 °C
